Source: the supplement of paper PMC10567573

B1: DFFB (parent)
chain: TLVEAIKEQDGREVDWEYFYGLLF

Variants of: B1
Assay: protein stability index of a GFP-peptide fusion (GPS, HEK-293T) (PSI 1-6); higher = more stable
Conditions: c terminus: a fixed tail appended
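Note: lentivirally expressed fusions sorted by FACS into six bins by GFP to DsRed ratio, PSI derived from sequencing read proportions per bin multiplied by bin number.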

Protein stability index, by site and new letter:
Y18: V 2.34; A 1.92; M 1.94; L 1.25; N 2.44; H 3.81; S 2.24; G 1.71; T 1.9; D 2.16; I 2.06; W 1.76; F 1.76; R 2.2; Q 2.18
W16: M 2.05; R 2.3; A 2.06; N 2.63; I 1.93; G 2.44; L 1.66; D 2.53; Y 1.72; F 1.93; V 2.61; Q 2.17; K 1.87; S 2.84; T 3.12; H 1.58; P 2.44; E 2.19; C 2.46
R12: Y 2.59; K 2.41; F 1.48; S 1.84; T 1.92; P 2.16; N 2.42; Q 2.41; A 1.32; G 1.74; H 2.2; W 1.72; V 2.07; M 2.18; E 2.44; I 1.56; C 1.91
G11: H 2.04; E 2.13; S 1.7; P 2.44; Y 1.88; Q 2.04; N 2.13; V 2.92; A 1.84; K 1.61; C 2.72; T 2.28; M 2.13; F 1.02
E13: C 1.22; A 1.74; Y 3.29; R 1.81; H 1.84; P 1.67; N 1.79; D 2.1; K 3.03; I 2.36; L 1.57; F 1.85; V 2.07; S 1.76; M 2.02; W 2.27; T 1.98; G 3.05
Q9: F 2.73; W 2.59; N 1.57; R 2.27; H 2.33; V 1.24; K 1.55; E 2.26; G 1.26; T 2; M 1.74; I 1.87; Y 1.08; S 1.66; L 3.05; P 3
D15: N 1.9; G 1.9; S 2.12; P 2.2; L 1.59; W 1.88; Y 1.19; A 1.44; C 1.9; R 1.75; I 2.15; E 3.52; H 1.51; Q 1.78; T 2.08; F 1.93; M 1.69
V14: H 1.91; N 2.36; M 1.98; C 1.5; Y 2.18; L 2.28; W 2.12; S 2.24; T 2.36; D 1.28; R 1.65; G 2.12; K 1.23; P 1.76; F 1.51; I 2.05; E 2.37; A 2.25; Q 1.7
E17: L 2.18; I 1.48; Y 1.67; F 1.6; T 2.42; N 1.4; Q 2.21; D 2.52; R 2.46; H 2.08; P 1.33; A 2.06; M 1.78; G 2.38; V 2.24; K 3.25
D10: Q 1.71; L 1.91; Y 1.92; N 1.86; V 1.73; K 2.12; M 1.35; A 2.01; H 1.99; P 2.32; C 1.99; F 1.91; G 2.66; R 1.41; S 2.37; T 1.59
